{"source": "paper PMC8886820", "key": {"[1]": {"molecular_target": "Taxol-stabilized microtubules (UniProt P02550)", "sequence (P02550 whole entry, chain 1 of 2)": "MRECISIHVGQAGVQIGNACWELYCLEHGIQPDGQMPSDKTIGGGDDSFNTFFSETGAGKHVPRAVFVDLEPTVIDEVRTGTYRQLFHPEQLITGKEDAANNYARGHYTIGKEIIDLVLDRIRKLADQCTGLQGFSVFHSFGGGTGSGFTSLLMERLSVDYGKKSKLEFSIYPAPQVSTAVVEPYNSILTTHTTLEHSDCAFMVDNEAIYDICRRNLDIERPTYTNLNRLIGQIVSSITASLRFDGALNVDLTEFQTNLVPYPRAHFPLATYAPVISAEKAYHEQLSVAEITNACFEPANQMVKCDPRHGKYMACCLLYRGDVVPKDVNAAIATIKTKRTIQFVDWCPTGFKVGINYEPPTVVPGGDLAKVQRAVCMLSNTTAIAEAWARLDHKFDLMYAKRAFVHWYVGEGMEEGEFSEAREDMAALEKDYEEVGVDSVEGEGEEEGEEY", "sequence (P02554 whole entry, chain 2 of 2, further chain)": "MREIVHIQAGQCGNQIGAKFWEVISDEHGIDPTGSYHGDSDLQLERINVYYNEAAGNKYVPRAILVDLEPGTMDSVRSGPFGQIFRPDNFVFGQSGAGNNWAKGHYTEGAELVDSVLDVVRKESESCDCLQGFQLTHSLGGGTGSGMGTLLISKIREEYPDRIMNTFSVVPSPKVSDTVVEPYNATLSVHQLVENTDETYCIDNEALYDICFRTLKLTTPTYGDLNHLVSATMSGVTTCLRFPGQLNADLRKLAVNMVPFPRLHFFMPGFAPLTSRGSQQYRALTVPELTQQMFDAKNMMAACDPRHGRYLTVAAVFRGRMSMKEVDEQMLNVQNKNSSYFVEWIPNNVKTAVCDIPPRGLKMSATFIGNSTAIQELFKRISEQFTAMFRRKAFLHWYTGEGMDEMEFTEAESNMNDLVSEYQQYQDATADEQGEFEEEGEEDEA", "assay": "TIRF microscopy of EGFP-tagged protein on surface-held microtubules"}, "[2]": {"molecular_target": "MBP-Spc105(10xMEED)-TST (D. melanogaster)", "assay": "pull-down"}, "[3]": {"molecular_target": "phospho-10xMEED (MBP-Spc105(10xMEED)-TST phosphorylated by activated Sli15(INBOX)-Ipl1) (D. melanogaster)", "assay": "pull-down"}, "[4]": {"molecular_target": "Taxol-stabilized microtubules (UniProt P02550)", "assay": "TIRF microscopy of EGFP-tagged protein on surface-held microtubules", "remark": "listed apart in the source"}}, "note": "Like-named read-outs stand apart in the source and are kept apart here.", "data": [{"substance": "Spc105-B(1-400)-EGFP phosphorylated with Sli15(INBOX)-Ipl1 (domain or fragment)", "values": [{"measurement": "percent of the MT binding of unphosphorylated Spc105-B(1-400) in 150 mM KCl", "setting": "[1]", "value": 22.1, "unit": "%"}]}, {"substance": "Bub3-EGFP (natural protein)", "values": [{"measurement": "fold Bub3 bound against the MBP-TST control", "setting": "[2]", "value": 2, "unit": "fold"}, {"measurement": "fold Bub3 bound against the unphosphorylated MBP-TST control", "setting": "[3]", "value": 30, "unit": "fold"}]}, {"substance": "Spc105-A(1-400)-EGFP (domain or fragment)", "values": [{"measurement": "percent of the MT binding of Spc105-B(1-400)", "setting": "[1]", "value": "< 50", "unit": "%"}]}, {"substance": "Spc105-B(1-400)-EGFP (domain or fragment)", "values": [{"measurement": "percent of the MT binding of Spc105-B(1-400) in 150 mM KCl", "setting": "[4]", "value": 12.5, "unit": "%"}, {"measurement": "percent of the MT binding of Spc105-B(1-400) in 150 mM KCl", "setting": "[1]", "value": 14.6, "unit": "%"}, {"measurement": "percent reduction of MT binding against Spc105-B(1-400) without 1,6-HD", "setting": "[1]", "value": 40, "unit": "%"}]}]}
